Laboratory results published in PMC3796367.

Assays:
[1] = molecular target: Pks4 SAT(C117A)-KS-MAT tridomain; experiment: cross-linking
[2] = molecular target: Pks4 SAT(C117A)-KS-MAT tridomain; experiment: ITC

| Substance | stoichiometry N (ACP monomers per S0KM dimer) [1] | Kd [2] [µM] |
| --- | --- | --- |
| Pks4 ACP loaded with a pantetheine crosslinker (crypto-ACP) (domain or fragment) | 2 |  |
| PksA apo-ACP (stand-alone ACP domain of PksA) (domain or fragment) |  | 30 |
| Pks4 apo-ACP (stand-alone ACP domain of Pks4) (domain or fragment) |  | 15 |
